Laboratory results from article PMC10352132 (Nature Structural & Molecular Biology, 2023).

Biological target: wild-type Rattus norvegicus GABA transporter 1 (rGAT1WT) (Rattus norvegicus, UniProt P23978)
Settings: one partner purified

B1: Fab 9D5 (Fab, V domains shown)
VH: EVQLVESGGGLVKPGGSLKLSCAASGFTFSSYAMSWVRQSPEKRLEWVAEISSGGRYIYYSDTVTGRFTISRDNARNILHLEMSSLRSEDTAMYYCARGEVRQRGFDYWGQGTTLTVSS
VL: ENVLTQSPAIMSTSPGEKVTMTCRASSSVGSSYLHWYQQKSGASPKLWIYSTSNLASGVPARFSGSGSGTSYSLTISSVEAEDAATYYCQQFSGYPLTFGSGTKLEMK
notes: heavy chain of Fab 9D5; light chain of Fab 9D5; Heavy and light chains were synthesized and cloned into pFastBac Dual with an N-terminal GP64 signal peptide; Only VH and VL are modeled in PDB 8GNK; also called 9D5 Fab; 9D5-Fab; source: Sf9 cells, baculovirus, exported into the media; purified (Ni-NTA, SEC on Superdex 75)
B1: no binding (tested: 50 ng of 9D5).
